{"source": "patent US20180021429A1", "about": "“ANTICANCER AGENTS OR ANTIMETASTATIC AGENTS USING FSTL1 AND COMBINATION DRUG THEREOF” (PHARMA FOODS INTERNATIONAL CO., LTD., priority 2015, published 2018)", "key": {"[1]": {"system": "Panc1, Panc1-snail+, MIAPaCa, MDA231, Hs294T", "assay": "Proliferative capacity and invasive capacity of various human tumor cells (Example 26)", "type": "cell-based", "conditions": "antibody 5 μg/ml; 3 days culture; Matrigel transwell 4 hours", "experimental": "Specifically, the influence of the anti-FSTL1 antibody on proliferative capacity and invasive capacity was studied using various human tumor cells, regardless of the presence or absence of the expression of Snail or FSTL1. Specifically, the anti-FSTL1 antibody (#6-55, 5 μg/ml) or a control antibody (aHema: mouse chimeric anti-hemagglutinin antibody, 5 μg/ml) was added to systems in which a pancreatic cancer cell line Panc1 (ATCC #CRL-1469), Panc1-snail+ which is a Panc1 cell line forced to express Snail, a pancreatic cancer cell line MIAPaCa (ATCC #CRL-1420), a bone metastatic breast cancer cell line MDA231 (ATCC #HTB-26), and a melanoma cell line Hs294T (ATCC #HTB-140) were each cultured at 1×10^5 cells. After culture for 3 days, the number of cells per culture system was counted to evaluate the proliferative capacity of the cells. The cells (5×10^4 cells) after the counting were further inoculated to Matrigel-coated transwell chamber (Corning Inc. #354480) and cultured for 4 hours. Then, the membranes were removed, and stained and fixed with Crystal Violet fixative. Then, the number of cells that permeated the membranes was counted under a microscope to evaluate the invasive capacity of the cells."}, "[2]": {"system": "mouse colorectal cancer CT26 cell-transplanted models", "assay": "In vivo colorectal cancer model (Example 20)", "set-up": "species or system BALB/c mice", "conditions": "intraperitoneal 10 mg/kg on days 4 and 7", "experimental": "Procedures and methods of the experiment were basically performed under substantially the same conditions as in the bone metastasis model experiments of Examples 17 to 19 except that bone metastasis was not evaluated. Specifically, drug efficacy evaluation was conducted using mouse tumor models other than Snail-positive tumor bone metastasis models. The drug efficacy of the anti-FSTL1 antibody was evaluated using cancer-bearing models of BALB/c mice different in strain from the C57BL/6 mice used in the preceding tests. The test was conducted by changing only the amount of tumor implanted, antibody administration timing, and assay timing. • Day 0: transplantation of tumor cells (5×10^5 cells subcutaneously & 5×10^5 cells intravenously) Days 4 and 7: intraperitoneal administration of the antibody (10 mg/kg) • Day 14: drug efficacy evaluation (subcutaneous tumor growth (FIG. 14A) and lung metastasis (FIG. 14B))\nFor lung metastasis, the number of metastatic nodules in the lung was macroscopically counted. The tumor volumes of the mice were measured 7, 11, and 14 days after tumor implantation."}, "mouse bone marrow cells": {"system": "mouse bone marrow cells", "assay": "Inhibition of induction of MSCs, cancer-associated MSCs and M-MDSCs by FSTL1 in mouse bone marrow cells (Examples 13-15)", "type": "cell-based", "conditions": "Example 15: 20 ng/mL FSTL1; antibody 20.0, 10.0, 5.0 or 2.5 μg/ml; 8 days; FIG. 104A", "experimental": "Mouse bone marrow cells prepared in the same way as in Example 4 were supplemented with 20 ng/mL ([…], #7-34, #8-1, or #8-4), an anti-PD-L1 antibody reported to have an immunosuppression-mitigating effect, or a control antibody anti-DNP antibody and cultured under stimulation. 8 days thereafter, the number of cells was counted while the cells were stained with a PE-Cy5-labeled anti-CD45 antibody, a PE-labeled anti-ALCAM antibody, a FITC-labeled anti-CD271 antibody (Abcam plc, Cat. No. AB62122), a FITC-labeled anti-CD11b antibody (BD Pharmingen/Becton, Dickinson and Company, Cat. No. 553310), and a PE-Cy5-labeled anti-Gr1 antibody (eBioscience, Cat. No. 15-5931) in order to detect MSCs (CD45− negative cells), cancer-associated MSCs (CD45-negative, ALCAM-positive, and CD271-positive cells) which are MSCs increasing in number in association with cancer metastasis, and monocytic myeloid-derived suppressor cells (M-MDSCs: CD11b-positive, Gr1-positive, and ALCAM-positive cells) increasing in number together with cancer-associated MSCs, and the contents of the cells mentioned above were analyzed by flow cytometry using FACScan to calculate the percentage and number of MSCs per culture (FIG. 102). […]\nThe antibody clone (#6-55, #7, #10, #13, or #22) was evaluated for its activity by the same testing method as in Example 13. #6-55 was set as a positive control for activity. […]"}}}
{"molecule": "#6-55: chicken-mouse chimeric anti-FSTL1 antibody clone; variable regions SEQ ID NO: 783 (light), 785 (heavy) (antibody, V domains shown, mouse constant regions) VH: AVTLDESGGGLQTPGGALSLVCKGSGFTFTSVTMQWVRQAPGKGLEWVASVCSGSSTYYAPAVKGRATISRDNGQSTVRLQLSNLRPEDTGTYYCAKIAGRARWSCTSAAYNIDAWGHGTEVIVSS VL: ASTQPSSVSAIPGETVKITCSGGGNNYGWYQQRSPGSAPVTVIYYNDNRPSNIPSRFSGSTSGSTSTLTITGVQADDEAIYYCGSWDSNTDSGIFGAGTTLTVL", "values": [{"measurement": "proliferative capacity and invasive capacity of tumor cells", "setting": "[1]", "value": "both proliferative capacity and invasive capacity were strongly suppressed, particularly, in a highly metastatic tumor cell line highly expressing Snail"}, {"measurement": "growth and lung metastasis of CT26 subcutaneous tumor", "setting": "[2]; day 14", "value": "very strongly suppressed the growth and lung metastasis of CT26 subcutaneous tumor"}, {"measurement": "solid tumor disappearance (mice)", "setting": "[2]; n=5", "value": "three out of the five mice"}, {"measurement": "inhibitory activity against the induction of MSCs, cancer-associated MSCs, and M-MDSCs by FSTL1", "setting": "mouse bone marrow cells", "value": "at the same level"}]}
